What was measured:
Assay in all cases: IEDB peptide-MHC binding, purified MHC/competitive/radioactivity; filed as Kd, often an IC50 or EC50 that approximates it; ≥ and ≤ were set here for values at or beyond the usual limits of such assays
[1] = biological target: HLA-B*54:01
[2] = biological target: HLA-B*07:02
[3] = biological target: HLA-B*35:01
[4] = biological target: HLA-B*51:01
[5] = biological target: HLA-B*53:01
[6] = biological target: HLA-A*26:01; conditions: source organism: Vaccinia virus WR
[7] = biological target: HLA-A*29:02; conditions: source organism: Vaccinia virus WR
[8] = biological target: HLA-A*30:02; conditions: source organism: Vaccinia virus WR
[9] = biological target: HLA-A*68:02; conditions: source organism: Vaccinia virus WR
[10] = biological target: HLA-A*23:01; conditions: source organism: Vaccinia virus WR
[11] = biological target: HLA-A*02:06; conditions: source organism: Vaccinia virus WR
[12] = biological target: HLA-A*24:02; conditions: source organism: Vaccinia virus WR
[13] = biological target: HLA-A*02:03; conditions: source organism: Vaccinia virus WR
[14] = biological target: HLA-A*01:01; conditions: source organism: Vaccinia virus WR
[15] = biological target: HLA-A*02:02; conditions: source organism: Vaccinia virus WR
[16] = biological target: HLA-A*30:01; conditions: source organism: Vaccinia virus WR
[17] = biological target: HLA-A*32:01; conditions: source organism: Vaccinia virus WR
[18] = biological target: HLA-B*15:01; conditions: source organism: Vaccinia virus WR
[19] = biological target: HLA-B*15:03; conditions: source organism: Vaccinia virus WR
[20] = biological target: HLA-B*08:01; conditions: source organism: Vaccinia virus WR
[21] = source organism: Vaccinia virus WR
[22] = source organism: SARS coronavirus Tor2

Sequence | Kd [1, 21] | Kd [2, 21] | Kd [3, 21] | Kd [4, 21] | Kd [5, 21] | Kd [1, 22] | Kd [2, 22] | Kd [3, 22] | Kd [4, 22] | Kd [5, 22] | Kd [19] | further results
FPGDKTSYWV | 5.36 nM | 261 nM | 88.8 nM | 50.1 nM | 14.4 nM | – | – | – | – | – | – | –
KPVDTSNSF | – | – | – | – | – | 5770 nM | 20.7 nM | 266 nM | 898 nM | 151 nM | – | –
KTSTLIFFV | 13800 nM | ≥ 30500 nM | ≥ 35800 nM | 11400 nM | 15000 nM | – | – | – | – | – | – | Kd [6]: 4810 nM; Kd [7]: 2650 nM; Kd [8]: 251 nM; Kd [9]: 47.2 nM; Kd [10]: 9120 nM; Kd [11]: 1.76 nM; Kd [12]: 6600 nM; Kd [13]: 156 nM; Kd [14]: 1880 nM; Kd [15]: 1.38 nM
FPKNDFVSF | – | – | – | – | – | – | – | – | – | – | 4.22 nM | Kd [16]: 9120 nM; Kd [17]: ≥ 53700 nM; Kd [18]: 10.4 nM; Kd [20]: 15.5 nM
IKFAAGIII | – | – | – | – | – | – | – | – | – | – | 16 nM | –
KPRSQMETDF | – | – | – | – | – | ≥ 49300 nM | 78.8 nM | 19500 nM | 2500 nM | ≥ 53700 nM | – | –
FMLMETMFF | – | – | – | – | – | – | – | – | – | – | 0.188 nM | –
MPICMDVRAI | – | – | – | – | – | 3.96 nM | 300 nM | 94.8 nM | 2.24 nM | 5.98 nM | – | –
MPTYKHLIMF | 23.6 nM | 21.8 nM | 20.6 nM | 843 nM | 18 nM | – | – | – | – | – | – | –

Reference: the Immune Epitope Database (IEDB)
